Results: the supplement of paper PMC12764529
± gives the half width of the 95% confidence interval.

Experiments:
[1] = folding stability dG unfold from trypsin proteolysis; higher = more stable
Procedure, shortened: (§1)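 Designed mini-proteins with no cysteine and under 80 residues were kept only if AlphaFold2 dimer inter-PAE was above 15. In a PA-tagged cDNA display construct, they were digested with trypsin and chymotrypsin and then sequenced. K50 was inferred by Bayesian fitting of counts, and unfolding free energy was derived per protease or combined against a sequence-predicted unfolded-state K50 and a shared folded-state K50.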

[2] = folding stability dG unfold from chymotrypsin proteolysis; higher = more stable
Procedure, shortened: as §1

[3] = folding stability dG unfold (combined trypsin and chymotrypsin); higher = more stable
Procedure, shortened: as §1

Row | Sequence | folding stability dG unfold [1] [kJ/mol] | folding stability dG unfold [2] [kJ/mol] | folding stability dG unfold [3] [kJ/mol]
1 | SALDVPPDARVYVFRLRYPVPPGVSAADVAARVRAELSERFGPDVEIVVTVTPDPETGEVLVEAVVVEPVSA [r9_657_TrMRF] | 15 ± 0.502 | 16.9 ± 0.243 | 16 ± 0.669
2 | SALEELLKELAEKLGYPYTVLEIKKEENTYKMVIKLTKEGTPVIVDVEIEFPSSDPNVYKVKIKKIEEPSAG [r14_387_JUSTAS] | 11.7 ± 0.364 | 15.07 ± 0.113 | 14.6 ± 0.301
3 | SALEIEIEQDEDGNMRISVYLPGWKPIEEQPVPPGDGMKTFIIKLPDRVLMITFTNGGIEPNPVPLNDISAG [r14_403_TrROS] | 10.2 ± 0.711 | 11.3 ± 0.385 | 10.5 ± 0.962
4 | SALKIEISFPGNAGEVRERVLGREDGSYEVEFLVTFPTPGDGIPSVLRVTYRVDPVSGKIEPRLEPVDASAG [r14_590_TrMRF] | 6.17 ± 0.105 | 13.6 ± 0.151 | 11.1 ± 0.218
5 | SALLVAPDGTVVKPETIKTTVETFTTYFLPPGKPVTRKGVKEYTVTVTTTTYTTPNPTLTVETTVTTVGSAG [r14_291_JUSTAS] | -0.192 ± 0.46 | 2.79 ± 0.837 | 1.64 ± 0.837
6 | SALPLPSSAKVELEWELVGVDPGSKGAKVYYRRTLKVTFPTGSLTVTYLVEYDPETGTFSWSITSVSPESAG [r14_293_TrMRF] | 17.2 ± 0.795 | 23.6 ± 0.397 | 22.5 ± 0.879
7 | SALPPGTTVTYTFYDPATGALVTVTVTTLPDGTVRVTLTVYDPSTGETTTVTFTVDGATLDELLDFIRAGSA [r9_618_TrMRF] | 15.8 ± 1.26 | 22.1 ± 0.753 | 22.5 ± 1.34
8 | SALRPDIPFDAVEKVVIPARHPLLGGVVEAGVYRLKDSDAVLVVVTFPDGSKLVFLVRPDDVLDVLDAISAG [r14_240_TrMRF] | 9.98 ± 0.276 | 12.42 ± 0.0418 | 11.5 ± 0.188
9 | SAMANITANYYDPETGKVLAKDLPLPNGDEVHVTPNPVTGTVTVEWDGPEEALEVIKAALPPDWKIYPLSAG [r14_252_TrMRF] | 2.98 ± 0.146 | -0.32 ± 0.669 | 1.51 ± 0.753
10 | SAMDFPPGSTATIKVEVKNPDNTKTETYEIEVPVDPETGKAITLEDLKEALEKLGVNPENVKIVDIKVGSAG [r14_93_TrMRF] | 13.3 ± 0.92 | 9.43 ± 0.837 | 11.4 ± 1.13
11 | SAMEIEIEPLEKEELLKLPGAEIRLFYFPDRVLAEILLPDGTPFFVEFDPSLKPEEVLEKLLKLLEELGSAG [r14_618_TrMRF] | 16.7 ± 0.753 | 17.9 ± 0.418 | 17.7 ± 0.544
12 | SAMEINIVLVAPPESPEALELAKEVAELVAKEIEEEGIPVEVEVEKIEFFRLPDGSIVVLIPIKVKPPESAG [r14_48_TrMRF] | 7.92 ± 0.418 | 13.7 ± 0.31 | 11 ± 0.795
13 | SAMEKVYIKVKFEVEGDPNGKEKKTIELIVENPDPNIGKEKLLEIAKEAVEKFAKENGYKVKISEVEIGSAG [r14_190_TrMRF] | 11.5 ± 1.21 | 17.6 ± 0.753 | 17.9 ± 1.63
14 | SAMELEFETDGSVSVEELIEEFKKAFPLVKEIEAEAEPIPYIPKYKVRFKIKLVPVPTPEEIEEFGKKKSAG [r14_645_TrMRF] | 4.25 ± 0.272 | 5.71 ± 0.879 | 5.02 ± 0.711
15 | SAMELRVESELFPDGRRRLVVLDPGDGAPVVTFIDLEPVDGGYRASITQIGPDPAVAERVARELGIPPESAG [r14_545_TrMRF] | -0.798 ± 0.879 | 4.88 ± 0.197 | 3.29 ± 0.343
